The test has as its target recombinant human prolidase with N-terminal His-Tag (human) (UniProt P12955). Description: SEC; Superdex 200 gel filtration in 150 mM NaCl, 25 mM Tris-HCl pH 7.5, 1 mM TCEP-HCl; mass by a commercial standard (Bio-Rad).

These results are taken from publication PMC9600000.

For the substance “recombinant human prolidase with N-terminal His-Tag (from UniProt P12955 1-493) (enzyme)”, the stoichiometry N (usually the number of molecules, sites or subunits per partner or assembly) amounted to 2.
